In this assay the target is recombinant HAT1 holoenzyme (HAT1 and RbAp46) (UniProt O14929;Q16576). Put plainly: pull-down.
Chain of recombinant HAT1 holoenzyme (HAT1 and RbAp46) (O14929 whole entry, chain 1 of 2): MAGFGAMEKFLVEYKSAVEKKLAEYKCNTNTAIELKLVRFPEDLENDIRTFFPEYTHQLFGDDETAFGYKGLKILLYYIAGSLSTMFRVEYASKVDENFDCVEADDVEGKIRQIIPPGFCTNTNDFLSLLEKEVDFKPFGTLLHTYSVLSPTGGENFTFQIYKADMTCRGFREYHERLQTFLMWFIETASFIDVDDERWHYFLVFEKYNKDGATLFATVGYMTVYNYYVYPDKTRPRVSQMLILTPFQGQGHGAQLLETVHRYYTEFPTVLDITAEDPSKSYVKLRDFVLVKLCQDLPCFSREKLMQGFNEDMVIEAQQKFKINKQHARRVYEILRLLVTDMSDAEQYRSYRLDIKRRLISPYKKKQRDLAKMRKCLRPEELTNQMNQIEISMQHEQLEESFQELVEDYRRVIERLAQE
Chain of recombinant HAT1 holoenzyme (HAT1 and RbAp46) (Q16576 whole entry, chain 2 of 2): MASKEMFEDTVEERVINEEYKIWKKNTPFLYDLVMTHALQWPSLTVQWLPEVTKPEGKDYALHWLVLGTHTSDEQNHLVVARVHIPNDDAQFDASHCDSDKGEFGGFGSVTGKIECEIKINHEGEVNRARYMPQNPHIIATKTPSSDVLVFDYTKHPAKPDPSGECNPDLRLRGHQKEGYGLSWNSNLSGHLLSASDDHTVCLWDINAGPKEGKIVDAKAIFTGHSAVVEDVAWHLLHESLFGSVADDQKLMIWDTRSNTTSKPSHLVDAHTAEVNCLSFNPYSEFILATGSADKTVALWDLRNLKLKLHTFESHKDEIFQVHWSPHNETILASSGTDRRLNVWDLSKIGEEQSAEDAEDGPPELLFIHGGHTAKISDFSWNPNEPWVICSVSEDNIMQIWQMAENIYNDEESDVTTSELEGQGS

B1: GST-tagged ASF1B (natural protein)
chain: MAKVSVLNVAVLENPSPFHSPFRFEISFECSEALADDLEWKIIYVGSAESEEFDQILDSVLVGPVPAGRHMFVFQADAPNPSLIPETDAVGVTVVLITCTYHGQEFIRVGYYVNNEYLNPELRENPPMKPDFSQLQRNILASNPRVTRFHINWDNNMDRLEAIETQDPSLGCGLPLNCTPIKGLGLPGCIPGLLPENSMDCI
For B1, the binding result is recorded as “binds”.
